Reference: paper PMC8752837, “Structural basis of BAK activation in mitochondrial apoptosis initiation” (Nature Communications, 2022)

Experiments:
[1] = test system: BCL2allKO HCT116 cells expressing mC-BAK and BID; test: Dox + TRAIL + CHX induced cell death by IncuCyte imaging of SYTOX Green uptake (direct activation); assay type: cell-based, human; details: TRAIL 200 ng/mL + CHX 0.5 µg/mL added at 6 h
Protocol: We achieved stable, constitutive expression of human BID in mC-BAK expressing BCL2allKO HCT116 by retroviral transduction based on pMX-human-BID-IRES-GFP. Amplification primers are included in Supplementary Table 4. We performed two rounds of FACS sorting gating on GFP-positive cells to enrich for populations of cells that express BID.
For coexpression of mC-BAK + BID, we treated cells with different doses of Dox for 24 h to induce expression of mC-BAK. At 6 h, we treated cells with TRAIL (200 ng/mL) + cycloheximide (CHX, 0.5 µg/mL) to promote BID activation under conditions of protein synthesis inhibition by CHX, and continued to record Incucyte imaging of SYTOX Green uptake up to 48 h. We blocked caspase activity with qVD (40 µM).

[2] = test system: BCL2allKO HCT116 cells reconstituted with mC-BAK; test: Endpoint FACS analysis of SYTOX Green positive cells; assay type: cell-based, human; details: average, N = 3
Protocol: We seeded cells in 24-well (100,000 cells/well), 96-well (15,000 cells/well), or 384-well (10,000 cells/well) plates coated with 10 µg/mL fibronectin. After ≥24 h of attachment and recovery, we induced cell death with Dox (up to 1000 ng/mL) and monitored SYTOX Green (25 nM) uptake by Incucyte imaging. This dye marks cells with compromised plasma membrane integrity. mC-BAK expressed before 24 h, which coincided with detectable cell death. We monitored Incucyte imaging for up to 48 h, followed by endpoint FACS analysis to measure the extent of cell death based on SYTOX Green positive cells on FACSCalibur systems (BD Biosciences). As expected, cells with low mCherry fluorescence were refractory to cell death.

B1: V74A (1): BAK missense mutant, WT-like; in cells as mCherry fusion (protein)
chain: MASGQGPGPPRQECGEPALPSASEEQVAQDTEEVFRSYVFYRHQQEQEAEGVAAPADPEMVTLPLQPSSTMGQAGRQLAIIGDDINRRYDSEFQTMLQHLQPTAENAYEYFTKIATSLFESGINWGRVVALLGFGYRLALHVYQHGLTGFLGQVTRFVVDFMLHHCIARWIAQRGGWVAALNLGNG
modifications: left off: His6, C-terminal, kept
notes: BAK missense mutant, WT-like; in cells as mCherry fusion
B1 was tested, and the “cell death with Dox + TRAIL + CHX compared to Dox alone” value [1] was “boosted the levels of cell death”, the “flow cytometry SYTOX Green counts/confluence (48 hr)” value ([2]; Dox 100 ng/mL) was 40.5 and the “flow cytometry SYTOX Green counts/confluence (48 hr)” value ([2]; Dox 1000 ng/mL) was 46.1667.
